{"source": "patent US20060292657A1", "about": "“Phex substrates and methods using same” (priority 2003, published 2006)", "proteins": {"B1": {"name": "human recombinant secPHEX (Homo sapiens) (protein)", "chain": "SLQAKQEYCLKPECIEAAAAILSKVNLSVDPCDNFFRFACDGWISNNPIPEDMPSYGVYPWLRHNVDLKLKELLEKSISRRRDTEAIQKAKILYSSCMNEKAIEKADAKPLLHILRHSPFRWPVLESNIGPEGVWSERKFSLLQTLATFRGQYSNSVFIRLYVSPDDKASNEHILKLDQATLSLAVREDYLDNSTEAKSYRDALYKFMVDTAVLLGANSSRAEHDMKSVLRLEIKIAEIMIPHENRTSEAMYNKMNISELSAMIPQFDWLGYIKKVIDTRLYPHLKDISPSENVVVRVPQYFKDLFRILGSERKKTIANYLVWRMVYSRIPNLSRRFQYRWLEFSRVIQGTTTLLPQWDKCVNFIESALPYVVGKMFVDVYFQEDKKEMMEELVEGVRWAFIDMLEKENEWMDAGTKRKAKEKARAVLAKVGYPEFIMNDTHVNEDLKAIKFSEADYFGNVLQTRKYLAQSDFFWLRKAVPKTEWFTNPTTVNAFYSASTNQIRFPAGELQKPFFWGTEYPRSLSYGAIGVIVGHEFTHGFDNNGRKYDKNGNLDPWWSTESEEKFKEKTKCMINQYSNYYWKKAGLNVKGKRTLGENIADNGGLREAFRAYRKWINDRRQGLEEPLLPGITFTNNQLFFLSYAHVRCNSYRPEAAREQVQIGAHSPPQFRVNGAISNFEEFQKAFNCPPNSTMNRGMDSCRLW", "notes": "pure soluble form of PHEX (secPHEX); made in house"}}, "test_in_all_cases": "Kinetic parameters for hydrolysis of internally quenched fluorogenic peptides by secPHEX", "assay_type_in_all_cases": "biochemical, human", "conditions_in_all_cases": "other: 37° C., 10 mM Bis-Tris buffer pH 5.5, 150 mM NaCl", "key": {"[1]": {"substrate": "CC(C)C[C@H](NC(=O)[C@H](Cc1c[nH]c2ccccc12)NC(=O)[C@H](C)NC(=O)c1ccccc1N)C(=O)N[C@@H](CC(=O)O)C(=O)N[C@@H](CO)C(=O)NCC(=O)N[C@H](C(=O)N[C@@H](CCC(N)=O)C(=O)NCCNc1ccc([N+](=O)[O-])cc1[N+](=O)[O-])C(C)C", "method": "(§1) The human recombinant secPHEX was obtained following the procedure previously described (17, WO 00/50580). Purified secPHEX concentration was determined using the Bradford method (DC protein assay kit; Bio-Rad, Mississauga, ON, Canada). Membrane-bound recombinant human PHEX was expressed in LLC-PK1 cells (17, (WO 00/50580)) and membranes were prepared essentially as described by Guo et al. (34). Briefly, transfected cells resuspended in lysis buffer (150 mM NaCl, 20 mM Tris.HCl, pH 7.6) were disrupted by sonication. Cell debris were removed by centrifugation at 300 g for 15 min at 4 °C. Membranes were collected by centrifugation at 30,000 g for 50 min and solubilized for 2h with 1% n-dodecyl-β-D-maltoside in lysis buffer. Insoluble material was pelleted by centrifugation at 10,000 g for 15 min and protein concentrations of the supernatant determined using the Bradford method described above. PHEX amounts were evaluated by immunoblotting as described previously (17). NEP expression and purification were performed as described previously (36).\n(§2) The hydrolysis of the IQFPs, at 37° C., in 10 mM Bit-Tris buffer pH 5.5 (0.35 to 1.0 ml final volume) containing 150 mM NaCl, was continuously followed measuring the fluorescence at γem=420 nm and γex=320 nm in a Hitachi F-2000™ spectrofluorometer. The cuvefte containing the buffer and the substrate was placed in a thermostatically controlled cell compartment for 5 min before the addition of the enzyme and the increase in fluorescence with time was continuously recorded for 5-10 min. The enzyme concentration for initial rate determination was chosen at a level intended to hydrolyze less than 5% of the substrate present. The slope was converted into micromoles of substrate hydrolyzed per min based on a calibration curve obtained from complete hydrolysis of each peptide. The inner-filter effect was corrected using an empirical equation as previously described (43). The kinetic parameters Km and kcat were calculated by the non-linear regression data analysis Grafit program (42). The kcat/Km values were calculated as the ratio of these two determined parameters. The apparent second order rate constant kcat/Km (*kIt/Km) was determined under pseudo first-order conditions, where [S]<<Km. These determinations were performed in two different substrate concentrations and the errors were less than 5% for any obtained value.\n(§3) To determine the position of cleavage in peptides of the IQFPs combinatorial libraries, the products resulting from hydrolysis by secPHEX were submitted to N-terminal amino acid sequencing in a PPSQ-23protein sequencer (Shimadzu Tokyo, Japan). The scissile bonds in the IQFPs secPHEX substrates derived from PTHrP107-139, FGF-23and MEPE were determined by amino acid sequencing and by MALDI-TOF™ mass spectrometry (TofSpec-E™, Micromass, Manchester, U.K.) after isolation of the fragments resulting from the hydrolysis by secPHEX by analytical HPLC.\n(§4) The assays were performed at 37° C., in 10 mM Bis-Tris buffer pH 5.5, containing 150 mM NaCl. Measurements were made as described under the heading “Experimental Procedures” above. Cleavage sites are indicated as arrows (↓). The standard deviations of the kinetic constants were less than 5%.\n(§5) The assays were performed at 37° C., in 10 mM Bis-Tris buffer pH 5.5, containing 150 mM NaCl. Measurements were made as described under the heading “Experimental Procedures” above. Cleavage sites are indicated by arrows (↓). The standard deviations of the kinetic constants were less than 5%.\n(§6) The assays were. performed at 37° C., in 10 mM Bis-Tris buffer pH 5.5, containing 150 mM NaCl. Measurements were made as described under the heading “Experimental Procedures” above. Cleavage sites are indicated by arrows (↓). The standard deviations of the kinetic constants were less than 5%.\n(§7) The assays were performed at 37° C., in 10 mM Bis-Tris buffer pH 5.5, containing 150 mM NaCl. Measurements were made as described under “Experimental Procedures”. […]"}, "[2]": {"substrate": "CC(C)C[C@H](NC(=O)[C@H](Cc1c[nH]cn1)NC(=O)[C@@H](NC(=O)c1ccccc1N)[C@@H](C)O)C(=O)N[C@@H](CC(=O)O)C(=O)N[C@H](C(=O)N[C@@H](CCCCN)C(=O)N[C@@H](CCCCN)C(=O)N[C@@H](CCC(N)=O)C(=O)NCCNc1ccc([N+](=O)[O-])cc1[N+](=O)[O-])[C@@H](C)O", "method": "as §1, §2, §3, §4, §5, §6, §7"}, "[3]": {"substrate": "CC(C)[C@H](NC(=O)[C@H](CC(=O)O)NC(=O)[C@H](Cc1ccc(O)cc1)NC(=O)CNC(=O)[C@H](CC(N)=O)NC(=O)c1ccccc1N)C(=O)N[C@@H](Cc1ccc(O)cc1)C(=O)N[C@@H](Cc1c[nH]cn1)C(=O)N[C@@H](CCC(N)=O)C(=O)NCCNc1ccc([N+](=O)[O-])cc1[N+](=O)[O-]", "method": "as §1, §2, §3, §4, §5, §6, §7"}, "[4]": {"substrate": "C[C@H](NC(=O)[C@H](CCC(N)=O)NC(=O)[C@H](CO)NC(=O)[C@H](CC(=O)O)NC(=O)[C@H](CCCNC(=N)N)NC(=O)[C@H](CCC(N)=O)NC(=O)[C@@H]1CCCN1C(=O)CNC(=O)c1ccccc1N)C(=O)N[C@@H](CCC(N)=O)C(=O)NCCNc1ccc([N+](=O)[O-])cc1[N+](=O)[O-]", "method": "as §1, §2, §3, §4, §5, §6, §7"}, "[5]": {"substrate": "Nc1ccccc1C(=O)NCC(=O)N[C@@H](Cc1ccccc1)C(=O)N[C@@H](CO)C(=O)N[C@@H](CC(=O)O)C(=O)N[C@@H](Cc1ccc(O)cc1)C(=O)N[C@@H](CCCCNc1ccc([N+](=O)[O-])cc1[N+](=O)[O-])C(=O)O", "method": "as §1, §2, §3, §4, §5, §6, §7"}}, "data": [{"protein": "B1", "values": [{"measurement": "Km", "setting": "[1]", "value": 1.5, "unit": "µM"}, {"measurement": "kcat", "setting": "[1]", "value": 0.04, "unit": "s⁻¹"}, {"measurement": "kcat/Km", "setting": "[1]", "value": 26700, "unit": "M⁻¹ s⁻¹"}, {"measurement": "Km", "setting": "[2]", "value": 15.0, "unit": "µM"}, {"measurement": "kcat", "setting": "[2]", "value": 0.02, "unit": "s⁻¹"}, {"measurement": "kcat/Km", "setting": "[2]", "value": 1300, "unit": "M⁻¹ s⁻¹"}, {"measurement": "Km", "setting": "[3]", "value": 9.0, "unit": "µM"}, {"measurement": "kcat", "setting": "[3]", "value": 0.01, "unit": "s⁻¹"}, {"measurement": "kcat/Km", "setting": "[3]", "value": 1100, "unit": "M⁻¹ s⁻¹"}, {"measurement": "Km", "setting": "[4]", "value": 47.0, "unit": "µM"}, {"measurement": "kcat", "setting": "[4]", "value": 0.2, "unit": "s⁻¹"}, {"measurement": "kcat/Km", "setting": "[4]", "value": 4300, "unit": "M⁻¹ s⁻¹"}, {"measurement": "Km", "setting": "[5]", "value": 3.0, "unit": "µM"}, {"measurement": "kcat", "setting": "[5]", "value": 0.5, "unit": "s⁻¹"}, {"measurement": "kcat/Km", "setting": "[5]", "value": 166700, "unit": "M⁻¹ s⁻¹"}]}]}
